Reference: patent US20050266009A1
Numbering of substitutions follows the chain as printed. Blank lines part the entries; values can stand above or below the binder they belong to.

Experiments:
[1] = molecular target: T1, CCR5 (residues 1-18) derived peptide sulfated at 1st tyrosine position; experiment: ELISA on coated peptide
T1 sequence (peptide, sulfated at 1st tyrosine position): MDYQVSSPIYDINYYTSE

[2] = molecular target: T2, CCR5 (residues 1-18) derived peptide sulfated at 2nd tyrosine position; experiment: ELISA on coated peptide
T2 sequence (peptide, sulfated at 2nd tyrosine position): MDYQVSSPIYDINYYTSE

[3] = molecular target: T3, CCR5 (residues 1-18) derived peptide sulfated at 3rd tyrosine position; experiment: ELISA on coated peptide
T3 sequence (peptide, sulfated at 3rd tyrosine position): MDYQVSSPIYDINYYTSE

[4] = molecular target: T4, GPIb (residues 268-285) derived peptide sulfated at 1st tyrosine position; experiment: ELISA on coated peptide
T4 sequence (peptide, sulfated at 1st tyrosine position): GDEGDTDLYDYYPEEDTE

[5] = molecular target: T5, GPIb (residues 268-285) derived peptide sulfated at 3rd tyrosine position; experiment: ELISA on coated peptide
T5 sequence (peptide, sulfated at 3rd tyrosine position): GDEGDTDLYDYYPEEDTE

[6] = molecular target: T6, PSGL-1 (residues 42-58) derived peptide sulfated at 1st tyrosine position; experiment: ELISA on coated peptide
T6 sequence (peptide, sulfated at 1st tyrosine position): QATEYEYLDYDFLPETE

[7] = molecular target: T7, PSGL-1 (residues 42-58) derived peptide sulfated at 2nd tyrosine position; experiment: ELISA on coated peptide
T7 sequence (peptide, sulfated at 2nd tyrosine position): QATEYEYLDYDFLPETE

[8] = molecular target: T8, PSGL-1 (residues 42-58) derived peptide sulfated at 3rd tyrosine position; experiment: ELISA on coated peptide
T8 sequence (peptide, sulfated at 3rd tyrosine position): QATEYEYLDYDFLPETE

[9] = molecular target: GPIb on guinea pig platelets (guinea pig); experiment: cell-based or functional assay
[10] = molecular target: T9, PSGL-1 (P-Selectin Glycoprotein Ligand-1) on cells (human) (UniProt Q14242); experiment: FACS on ML-2 cells in PBS, purified scFv
T9 sequence (looked up): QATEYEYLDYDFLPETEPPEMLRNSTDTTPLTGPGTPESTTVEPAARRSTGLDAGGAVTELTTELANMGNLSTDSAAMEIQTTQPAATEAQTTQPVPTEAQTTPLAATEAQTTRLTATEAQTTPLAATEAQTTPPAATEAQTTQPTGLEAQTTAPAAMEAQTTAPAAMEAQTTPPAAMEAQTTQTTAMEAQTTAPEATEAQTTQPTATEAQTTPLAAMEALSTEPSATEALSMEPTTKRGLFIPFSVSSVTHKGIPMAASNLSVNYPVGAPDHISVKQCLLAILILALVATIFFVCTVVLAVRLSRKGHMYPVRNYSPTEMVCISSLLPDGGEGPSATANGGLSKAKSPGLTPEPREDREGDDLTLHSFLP

[11] = molecular target: T9, PSGL-1 (P-Selectin Glycoprotein Ligand-1) on cells (human); experiment: FACS on ML-2 cells in 50% plasma, purified scFv
[12] = molecular target: T9, PSGL-1 (P-Selectin Glycoprotein Ligand-1) on cells (human); experiment: FACS, whole blood sample #1, monocytes, 1 µg scFv
[13] = molecular target: T9, PSGL-1 (P-Selectin Glycoprotein Ligand-1) on cells (human); experiment: FACS, whole blood sample #2, monocytes, 1 µg scFv
[14] = molecular target: T9, PSGL-1 (P-Selectin Glycoprotein Ligand-1) on cells (human); experiment: FACS, whole blood sample #1, lymphocytes, 1 µg scFv
[15] = molecular target: T9, PSGL-1 (P-Selectin Glycoprotein Ligand-1) on cells (human); experiment: FACS, whole blood sample #1, monocytes, 0.1 µg scFv
[16] = molecular target: T9, PSGL-1 (P-Selectin Glycoprotein Ligand-1) on cells (human); experiment: FACS, whole blood sample #1, monocytes, 0.5 µg scFv
[17] = molecular target: T9, PSGL-1 (P-Selectin Glycoprotein Ligand-1) on cells (human); experiment: FACS, whole blood sample #2, lymphocytes, 1 µg scFv
[18] = molecular target: T9, PSGL-1 (P-Selectin Glycoprotein Ligand-1) on cells (human); experiment: FACS, whole blood sample #2, monocytes, 0.1 µg scFv
[19] = molecular target: T9, PSGL-1 (P-Selectin Glycoprotein Ligand-1) on cells (human); experiment: FACS, whole blood sample #2, monocytes, 0.5 µg scFv
[20] = molecular target: T9, PSGL-1 (P-Selectin Glycoprotein Ligand-1) on cells (human); experiment: FACS, whole blood sample #1, granulocytes, 1 µg scFv
[21] = molecular target: T9, PSGL-1 (P-Selectin Glycoprotein Ligand-1) on cells (human); experiment: FACS, whole blood sample #2, granulocytes, 1 µg scFv
[22] = molecular target: T9, PSGL-1 (P-Selectin Glycoprotein Ligand-1) on cells (human); experiment: FACS, whole blood sample #1, lymphocytes, 0.1 µg scFv
[23] = molecular target: T9, PSGL-1 (P-Selectin Glycoprotein Ligand-1) on cells (human); experiment: FACS, whole blood sample #1, lymphocytes, 0.5 µg scFv
[24] = molecular target: T9, PSGL-1 (P-Selectin Glycoprotein Ligand-1) on cells (human); experiment: FACS, whole blood sample #2, lymphocytes, 0.1 µg scFv
[25] = molecular target: T9, PSGL-1 (P-Selectin Glycoprotein Ligand-1) on cells (human); experiment: FACS, whole blood sample #2, lymphocytes, 0.5 µg scFv
[26] = molecular target: T9, PSGL-1 (P-Selectin Glycoprotein Ligand-1) on cells (human); experiment: FACS, whole blood sample #1, granulocytes, 0.1 µg scFv
[27] = molecular target: T9, PSGL-1 (P-Selectin Glycoprotein Ligand-1) on cells (human); experiment: FACS, whole blood sample #1, granulocytes, 0.5 µg scFv
[28] = molecular target: T9, PSGL-1 (P-Selectin Glycoprotein Ligand-1) on cells (human); experiment: FACS, whole blood sample #2, granulocytes, 0.1 µg scFv
[29] = molecular target: T9, PSGL-1 (P-Selectin Glycoprotein Ligand-1) on cells (human); experiment: FACS, whole blood sample #2, granulocytes, 0.5 µg scFv
glycocalicin = glycocalicin (UniProt P07359); experiment: SPR (BIAcore 3000), glycocalicin immobilized on CM5 chip
Chain of glycocalicin (P07359 17-531 limits assumed): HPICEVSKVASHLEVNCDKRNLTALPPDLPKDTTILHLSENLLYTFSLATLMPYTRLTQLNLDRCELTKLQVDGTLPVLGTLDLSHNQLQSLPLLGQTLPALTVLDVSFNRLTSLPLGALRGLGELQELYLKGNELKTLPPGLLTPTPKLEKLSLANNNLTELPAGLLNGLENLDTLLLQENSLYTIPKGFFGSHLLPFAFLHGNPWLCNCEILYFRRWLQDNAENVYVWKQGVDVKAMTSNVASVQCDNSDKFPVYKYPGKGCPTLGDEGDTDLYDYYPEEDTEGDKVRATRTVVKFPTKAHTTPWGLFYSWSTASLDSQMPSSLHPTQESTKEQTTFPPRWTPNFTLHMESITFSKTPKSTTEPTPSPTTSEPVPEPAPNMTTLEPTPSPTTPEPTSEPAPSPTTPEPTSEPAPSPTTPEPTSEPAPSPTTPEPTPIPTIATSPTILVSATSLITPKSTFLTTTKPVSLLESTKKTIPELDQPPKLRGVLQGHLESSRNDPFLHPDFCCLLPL

[30] = molecular target: GPIb on human platelets (human) (UniProt P07359); experiment: FACS on platelets, PRP sample #1, 1 µg scFv; PRP sample #1, 1 µg scFv
Chain of GPIb on human platelets (human) (P07359 17-652): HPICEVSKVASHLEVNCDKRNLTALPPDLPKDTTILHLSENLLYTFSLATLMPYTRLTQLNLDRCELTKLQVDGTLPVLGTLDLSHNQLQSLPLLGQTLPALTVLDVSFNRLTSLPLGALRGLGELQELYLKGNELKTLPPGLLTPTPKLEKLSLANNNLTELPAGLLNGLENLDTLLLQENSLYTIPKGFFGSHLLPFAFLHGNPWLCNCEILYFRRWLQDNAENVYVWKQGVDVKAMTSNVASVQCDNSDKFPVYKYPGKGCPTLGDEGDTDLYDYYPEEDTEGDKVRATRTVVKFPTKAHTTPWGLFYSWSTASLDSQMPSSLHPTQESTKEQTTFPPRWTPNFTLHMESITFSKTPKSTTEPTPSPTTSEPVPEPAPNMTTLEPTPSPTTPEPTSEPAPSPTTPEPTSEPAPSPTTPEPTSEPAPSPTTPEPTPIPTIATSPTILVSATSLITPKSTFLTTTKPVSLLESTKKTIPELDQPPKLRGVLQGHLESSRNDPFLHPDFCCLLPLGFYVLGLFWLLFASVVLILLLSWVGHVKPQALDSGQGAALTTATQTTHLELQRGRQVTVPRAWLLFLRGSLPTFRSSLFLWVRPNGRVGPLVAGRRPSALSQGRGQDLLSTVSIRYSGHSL

[31] = molecular target: GPIb on human platelets (human) (UniProt P07359); experiment: FACS on platelets, PRP sample #1, 2 µg scFv; PRP sample #1, 2 µg scFv
[32] = molecular target: GPIb on human platelets (human) (UniProt P07359); experiment: FACS on platelets, PRP sample #2, 1 µg scFv; PRP sample #2, 1 µg scFv
[33] = molecular target: GPIb on human platelets (human) (UniProt P07359); experiment: FACS on platelets, PRP sample #2, 2 µg scFv; PRP sample #2, 2 µg scFv
[34] = molecular target: GPIb on human platelets (human) (UniProt P07359); experiment: FACS on platelets in PRP, 1 µg scFv; mean of PRP samples #1 and #2, 1 µg scFv
[35] = molecular target: T10, CCR5 (residues 1-18) derived peptide, non-sulfated; experiment: ELISA on coated peptide
T10 sequence (peptide): MDYQVSSPIYDINYYTSE

[36] = molecular target: T11, GPIb (residues 268-285) derived peptide, non-sulfated; experiment: ELISA on coated peptide
T11 sequence (peptide): GDEGDTDLYDYYPEEDTE

[37] = molecular target: T12, PSGL-1 (residues 42-58) derived peptide, non-sulfated; experiment: ELISA on coated peptide
T12 sequence (peptide): QATEYEYLDYDFLPETE

[38] = molecular target: GPIb on guinea pig platelets (guinea pig); experiment: FACS on guinea pig platelets

ELISA reading at 450 nm [1]: 0.12
ELISA reading at 450 nm [2]: 0.3
ELISA reading at 450 nm [3]: 0.16
ELISA reading at 450 nm [4]: 0.6
ELISA reading at 450 nm [5]: 0.3
ELISA reading at 450 nm [6]: 0.02
ELISA reading at 450 nm [7]: 0.2
ELISA reading at 450 nm [8]: 0.6
inhibition of guinea pig platelet aggregation, IC50 [9]: 80 to 160 mg/L
fold binding compared to L32 and Y1 [10]: > 100 fold
fold binding compared to L32 and Y1 [11]: > 10 fold
Geo Mean [12]: 290
Geo Mean [13]: 340
Geo Mean [14]: 120
Geo Mean [15]: 56
Geo Mean [16]: 192
Geo Mean [17]: 112
Geo Mean [18]: 69
Geo Mean [19]: 248
Geo Mean [20]: 150
Geo Mean [21]: 220
Geo Mean [22]: 36
Geo Mean [23]: 81
Geo Mean [24]: 18
Geo Mean [25]: 78
Geo Mean [26]: 26
Geo Mean [27]: 100
Geo Mean [28]: 44
Geo Mean [29]: 151
Kd (glycocalicin): 0.18 µM
koff (glycocalicin): 0.43 s⁻¹
Geo Mean [30]: 30
Geo Mean [31]: 120
Geo Mean [32]: 23
Geo Mean [33]: 68
average geo mean of both PRP samples [34]: 26
B1: S15 scFv (scFv)
scFv: EVQLVESGGGVVRPGGSLRLSCAASGFTFDLNPKVKHMWVRQAPGKGLEWVSGINWNGGSTGYADSVKGRFTISRDNAKNSLYLQMNSLRAEDTAVYYCARLRRPSIWGQGTLVTVSRGGGGSGGGGSGGGGSSELTQDPAVSVALGQTVRITCQGDSLRSYYASWYQQKPGQAPVLVIYGKNNRPSGIPDRFSGSSSGNTASLTITGAQAEDEADYYCNSRDSSGNHVVFGGGTKLTVLGAAAEQKLISEEDLNGAA

ELISA reading at 450 nm [1]: 0.07
ELISA reading at 450 nm [2]: 0.3
ELISA reading at 450 nm [3]: 0.07
ELISA reading at 450 nm [35]: 0.06
ELISA reading at 450 nm [4]: 0.8
ELISA reading at 450 nm [5]: 0.15
ELISA reading at 450 nm [36]: 0.07
ELISA reading at 450 nm [6]: 0.1
ELISA reading at 450 nm [7]: 0.08
ELISA reading at 450 nm [8]: 0.8
ELISA reading at 450 nm [37]: 0.07
fold binding capacity relative to Y1 [38]: 25 fold
B2: S1 scFv (scFv, from a related filing)
scFv: B1 scFv with R104P, S106F, I107L

ELISA reading at 450 nm [1]: 0.12
ELISA reading at 450 nm [2]: 0.7
ELISA reading at 450 nm [3]: 0.11
ELISA reading at 450 nm [35]: 0.08
ELISA reading at 450 nm [4]: 0.6
ELISA reading at 450 nm [5]: 0.3
ELISA reading at 450 nm [36]: 0.1
ELISA reading at 450 nm [6]: 0.16
ELISA reading at 450 nm [7]: 0.12
ELISA reading at 450 nm [8]: 0.7
ELISA reading at 450 nm [37]: 0.01
fold binding capacity relative to Y1 [38]: 25 fold
B3: S11 scFv (scFv, from a related filing)
scFv: B1 scFv with R104Y, S106F, I107F
